Laboratory results reported in publication PMC12820099, “CTCF couples long-range loop extrusion and diffusion to mediate a diverse Igκ repertoire” (Nature Communications, 2025).

B1: CTCF(Y226A/F228A) (natural protein, mouse (endogenous in v-Abl pro-B cells), UniProt Q61164 1-736, looked up)
chain: MEGEAVEAIVEESETFIKGKERKTYQRRREGGQEEDACHLPQNQTDGGEVVQDVNSSVQMVMMEQLDPTLLQMKTEVMEGTVAPEAEAAVDDTQIITLQVVNMEEQPINIGELQLVQVPVPVTVPVATTSVEELQGAYENEVSKEGLAESEPMICHTLPLPEGFQVVKVGANGEVETLEQGELPPQEDSSWQKDPDYQPPAKKTKKTKKSKLRYTEEGKDVDVSVADAEEEQQEGLLSEVNAEKVVGNMKPPKPTKIKKKGVKKTFQCELCSYTCPRRSNLDRHMKSHTDERPHKCHLCGRAFRTVTLLRNHLNTHTGTRPHKCPDCDMAFVTSGELVRHRRYKHTHEKPFKCSMCDYASVEVSKLKRHIRSHTGERPFQCSLCSYASRDTYKLKRHMRTHSGEKPYECYICHARFTQSGTMKMHILQKHTENVAKFHCPHCDTVIARKSDLGVHLRKQHSYIEQGKKCRYCDAVFHERYALIQHQKSHKNEKRFKCDQCDYACRQERHMIMHKRTHTGEKPYACSHCDKTFRQKQLLDMHFKRYHDPNFVPAAFVCSKCGKTFTRRNTMARHADNCAGPDGVEGENGGETKKSKRGRKRKMRSKKEDSSDSEENAEPDLDDNEEEEEPAVEIEPEPEPQPQPPPPPQPVAPAPPPAKKRRGRPPGRTNQPKQNQPTAIIQVEDQNTGAIENIIVEVKKEPDAEPAEGEEEEAQAATTDAPNGDLTPEMILSMMDR
notes: CTCF, mouse, endogenous, with the Y226A/F228A mutation of the N-terminal YDF motif; also called CTCF-Nm; source: endogenous locus, homozygous CRISPR/Cas9 knock-in, chromatin fraction of G1 arrested CTCF-Nm v-Abl pro-B cells
B2: WAPL (natural protein, mouse (endogenous in v-Abl pro-B cells), UniProt Q65Z40 1-1200, looked up)
chain: MTSRFGKTYSRKGGNGSSKFDEVFSNKRTTLSTKWGETTFMAKLGQKRPNFKPDIQEIPKKPKVEEEDTGDPFGFDSDDESLPVSSKNLAQGKGSSYSESSEAAQLEEVTSVFEANSKCSHVVGEDSFASDRCLLVEDTLIGKEKSISRIPEDNANKSSCTKLLTSDKVENFSEEHEKNSHHFHKNAEDSTKKPNAETAVASEYKADETKETNDTWNSQSGKRTESPSESCPVKGSVRTGLYEWDNDFEDIRSEDCILSLDNESLLEMKDEDLKNRIGGLENLNETFEEDIIQSVLRPSNCRTYCRANKARSSQGASNFDKLMDGTSQSLAKANSESSKDGLNQAKKGSASCGTSFRGTVGRTRDYTVLHPSCLSVCNVTIQDTMERSMDEFTASTPADLGEAGRLRKKADIATSKTTTRFRPSNTKSKKDVKLEFFGFEDHDETGGDEGGSGSSNYKIKYFGFDDLSESEDDDDDDCQVERKKDKKRTKTAPSPSQQPPPESSDNSQDSQSSTNNAENLDFTEDLPGVPESVKKPISKQGDKSKENTRKIFSGPKRSPTKAVYNARHWNHPDSEELPGPPIAKPQRVTVRLSSKEPNQKDDGVFKAPAPPLKVIKTVTIPTQPYQEIVTALKCRKEDKELYTVVQHVKHFNDVVEFGENQEFTDDIEYLLSGLKSTQPLNTRCLSVISLATKCAMPSFRMHLRAHGMVAMVFKTLDDSQHHQNLSLCTAALMYILSRDRLNMDLDRASLDLMIRLLELEQDASSAKLLNEKDMNKIKEKIRRLCETVHNKHLDLENITTGHLAMETLLSLTSKRAGDWFKEELRLLGGLDHIVDKVKECVDHLSRDDEDEEKLVASLWGAERCLRVLESVTVHNPENQSYLIAYKDSQLIISSAKALQHCEDLIQQYNRAENSICVADSNPLPYQNVTNHVGKAVEDCMRAIIGVLLNLTNDNEWGSTKTGEQEGLIGTAMNCVLQVPKYLPQEQRFDIRVLGLGLLINLVEYSARNRHCLVNMQTSCSFDSSFSSGEGDHSLRLAGQVHAVQALVQLFLERERAAQLAESKTDELIKDAPTTQHDKSGEWQETSGEIQWVSTEKTDGAEEKQKKEEEDEELDLNKALQHAGKHMEDCIVASYTALLLGCLCQESPINVTTVREYLPEGDFSIMTEMLKKFLSFMNLTCAVGTTGQKSISRVIEYLEHC
notes: WAPL, mouse, endogenous, untagged in the WT and CTCF-Nm lines used for the IP; source: endogenous, chromatin fraction of G1 arrested v-Abl pro-B cells (WT and CTCF-Nm)

Target: T1, SMC3 (mouse (endogenous in v-Abl pro-B cells), UniProt Q9CW03 1-1217)
T1 construct: SMC3, mouse, endogenous; precipitated with an SMC3 antibody from the solubilised chromatin fraction; Bait of the IP; it sits in the cohesin complex, so partners may touch other cohesin subunits rather than SMC3 itself; also called cohesin (SMC3 immunoprecipitate); source: endogenous, chromatin fraction of G1 arrested v-Abl pro-B cells (WT and CTCF-Nm)
Assay: affinity purification with mass spectrometry; SMC3 antibody IP (Protein A beads, overnight, 100 mM NaCl) from Benzonase-solubilised chromatin fraction of G1 arrested WT and CTCF-Nm v-Abl pro-B cells; label-free qMS, protein intensities normalised to chromatin-bound SMC3; IgG isotype control
Conditions: partners not purified

T1 sequence (Q9CW03 whole entry): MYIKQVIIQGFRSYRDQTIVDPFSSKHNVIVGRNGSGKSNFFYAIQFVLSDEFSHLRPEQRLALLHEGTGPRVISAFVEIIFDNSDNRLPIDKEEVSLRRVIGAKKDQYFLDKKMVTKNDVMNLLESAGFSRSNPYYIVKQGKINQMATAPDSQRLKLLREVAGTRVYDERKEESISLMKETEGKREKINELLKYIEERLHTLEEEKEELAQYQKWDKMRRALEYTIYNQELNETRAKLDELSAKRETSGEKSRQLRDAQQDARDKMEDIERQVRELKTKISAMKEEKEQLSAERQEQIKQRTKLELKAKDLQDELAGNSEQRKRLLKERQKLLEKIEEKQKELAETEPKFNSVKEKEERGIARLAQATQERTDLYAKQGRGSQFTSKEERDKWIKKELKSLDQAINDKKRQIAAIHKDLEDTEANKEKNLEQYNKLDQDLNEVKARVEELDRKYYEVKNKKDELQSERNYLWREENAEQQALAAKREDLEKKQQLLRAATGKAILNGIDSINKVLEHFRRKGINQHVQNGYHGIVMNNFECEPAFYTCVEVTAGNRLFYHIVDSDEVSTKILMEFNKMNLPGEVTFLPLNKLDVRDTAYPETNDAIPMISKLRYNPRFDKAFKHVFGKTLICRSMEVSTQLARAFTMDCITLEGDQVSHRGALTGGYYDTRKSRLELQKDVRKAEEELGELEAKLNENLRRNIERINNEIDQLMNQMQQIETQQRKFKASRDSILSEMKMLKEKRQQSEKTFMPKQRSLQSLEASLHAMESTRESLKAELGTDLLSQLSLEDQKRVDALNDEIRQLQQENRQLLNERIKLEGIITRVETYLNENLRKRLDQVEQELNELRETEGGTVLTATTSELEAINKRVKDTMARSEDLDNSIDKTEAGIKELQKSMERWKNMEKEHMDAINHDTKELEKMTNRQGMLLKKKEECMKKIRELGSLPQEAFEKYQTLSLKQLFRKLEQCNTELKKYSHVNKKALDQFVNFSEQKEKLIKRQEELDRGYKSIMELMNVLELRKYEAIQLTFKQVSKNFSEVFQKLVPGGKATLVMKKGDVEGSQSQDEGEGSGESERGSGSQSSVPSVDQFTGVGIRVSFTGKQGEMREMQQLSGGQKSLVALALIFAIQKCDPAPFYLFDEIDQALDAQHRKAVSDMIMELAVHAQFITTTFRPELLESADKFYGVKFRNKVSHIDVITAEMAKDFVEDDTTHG

| Binder | fold reduction of the interaction against WT CTCF | fold increase of the interaction in CTCF-Nm cells against WT cells |
| --- | --- | --- |
| B1 | 3 fold | – |
| B2 | – | 1.9 fold |
